Data: US10962528B2, “Blue fluorescent protein monomers and uses thereof” (WISYS TECHNOLOGY FOUNDATION, INC., priority 2015, dated 2021)
Changes are numbered by the printed parent chain. Numbers in names are those of the source.

B1: SFP-V71E: monomeric SFP variant V71E, SEQ ID NO:2 (protein)
chain: FIKPGRCPKPAVQEDFDAARYLGVWYDIQRLPNKFQKGECATATYSLSPGEGFSVFNRERLANGTIKSVIGSAIAEDPCEPAKLQFFHENAAPVPYWVLSTDYDNYALVYSCINLGASHAAYASIVSRQPTLPEETIKKLQGTMSSFGVGVDTLLTTNQDAAYCSAMNQ
B2: SFP-L135E: monomeric SFP variant L135E, SEQ ID NO:3 (protein)
chain: B1 chain with E51V, L115E
B3: SFP-A137E: monomeric SFP variant A137E, SEQ ID NO:4 (protein)
chain: B1 chain with E51V, A117E
B4: Wild-type SFP: Sandercyanin fluorescent protein from walleye Sander vitreus mucus, biliverdin-binding lipocalin tetramer; SEQ ID NO:1 (recombinant SEQ ID NO:31) (protein, listed as Sander vitreus)
chain: MNAIQVISLTLLSVLAAKAMFIKPGRCPKPAVQEDFDAARYLGVWYDIQRLPNKFQKGECATATYSLSPGVGFSVFNRERLANGTIKSVIGSAIAEDPCEPAKLQFFHENAAPVPYWVLSTDYDNYALVYSCINLGASHAAYASIVSRQPTLPEETIKKLQGTMSSFGVGVDTLLTTNQDAAYCSAMAQ
modifications: biliverdin chromophore
B5: SFP-VP95insGG: L135E monoSFP extended with glycine residues at position 95, SEQ ID NO:6 (protein)
chain: MFIKPGRCPKPAVQEDFDAARYLGVWYDIQRLPNKFQKGECATATYSLSPGVGFSVFNRERLANGTIKSVIGSAIAEDPCEPAKLQFFHENAAPGGVPYWVLSTDYDNYALVYSCINSFEGASHAAYASIVSRQPTLPEETIKKLQGTMSSFGVGVDTLLTTNQDAAYCSAMNQ
B6: SFP-FH88insGG: L135E monoSFP extended with glycine residues at position 88, SEQ ID NO:5 (protein)
chain: MFIKPGRCPKPAVQEDFDAARYLGVWYDIQRLPNKFQKGECATATYSLSPGVGFSVFNRERLANGTIKSVIGSAIAEDPCEPAKLQFGGFHENAAPVPYWVLSTDYDNYALVYSCINEGASHAAYASIVSRQPTLPEETIKKLQGTMSSFGVGVDTLLTTNQDAAYCSAMNQ

Tests used:
[1] = Photobleaching / photo-stability studies; format: physicochemical
Experimental: FIGS. 11C-11D (C) Titration of apo-SFP (20 uM) with BV IXα measured at 675 nm with λex=375 nm (green) and 630 nm (red). (D) Photo-bleaching kinetics of Sandercyanin and free-biliverdin (BV).
(§1) All experiments were performed with purified SFP samples (apo and holo forms) at pH 7.5 and room temperature. UV-Visible absorbance spectra of native and recombinant SFP were recorded from 800 to 200 nm with ultraspec 2100 pro spectrophotometer from Amersham Biosciences. CD spectra were measured on JASCO J-815 Spectropolarimeter. Steady state fluorescence, excitation, binding and photobleaching studies were monitored on Horiba Jobin Yvon Fluoromax-4 fluorimeter. Data analysis were done using Origin6 and Origin8 software. Hydrogen was exchanged with Deuterium by increasing concentrations of D2O to a standard protein concentration. Deuteriated proteins were prepared in the same buffer, incubated for 15 minutes, and monitored for spectral properties.

[2] = Fluorescence of free biliverdin in different solvent conditions; format: physicochemical; settings: increased hydrophobicity of the medium
Description: FIG. 11F Effect of hydrophobicity of solvent on fluorescence spectra of biliverdin monitored at excitation wavelengths of (left) 375 nm and (right) 600 nm. Labels are biliverdin in DMSO 1150, biliverdin in acetone 1152, biliverdin in ethanol 1154, biliverdin in benzene 1156, and biliverdin in toluene 1158.
FIG. 11G Effect of viscosity of solvent (PEG 400) on fluorescence spectra of biliverdin monitored at excitation wavelengths of (left) 375 nm and (right) 600 nm. Labels are 0% PEG400 1160, 5% PEG400 1162, 10% PEG400 1164, and 15% PEG400 1166.
We performed experiments with free biliverdin in different solvents conditions, to understand the molecular basis of the observed fluorescent properties of Sandercyanin-BV complex. […] A similar trend was observed on increasing the viscosity of medium with increased polyethylene glycol and changing the pH of medium to pH 8.8-9.5.

apoSFP = test: Binding of apoSFP with other tetrapyrroles monitored by fluorescence; parameters: species or system Sander vitreus; settings: excitation at 375 nm and 630 nm
Description: FIG. 11E Binding of apoSFP with other tetrapyrroles monitored by fluorescence on excitation at (left) 375 nm and (right) 630 nm.
To examine the specificity of Sandercyanin to bilverdin IXa, we tested other BV-like tetrapyrrol compounds: hemin, bilirubin, and esterified BV derivatives.

[3] = Steady state fluorescence spectra and quantum yield; format: physicochemical; settings: for Quantum yield / Ex/Em1, emission / Ex/Em1, excitation: in complex with biliverdin; for brightness relative to L135E monoSFP: glycine loop extension
Experimental: as §1
Characterization of monoSFP Variants—MonoSFP variants were characterized by size-exclusion chromatography during purification of the proteins. We further characterized the spectral properties and binding-efficiencies of a few of these monoSFPs (Tables 2 and 4), and found them to be similar to wild-type SFP (FIG. 2, FIG. 3, Table 4). They have far-red to near infra-red fluorescence with large Stokes shift. […] To test this, we performed detergent (Triton X-100) assays with the monoSFPs and measured absorbance and fluorescence spectra. Further, we made attempts to extend one of the loops which encloses biliverdin in the centre of the protein. Two mutants, FH88insGG and VP95insGG, were extended with glycine residues at the 88th and 95th positions in the amino acid chain of L135E monoSFP mutant. One hypothesis was that extension would prevent photon loss due to solvent exposure of the ligand and enhance the quantum efficiency.

[4] = UV-Visible absorbance spectra; format: physicochemical
Experimental: as §1, with “All experiments were performed with purified SFP samples (apo and holo forms) at pH 7.5 and room temperature.” left out

[5] = excitation at 380 nm and 630 nm, Yu et al. 2008; cited from earlier work
[6] = Biliverdin binding of SFP and monomeric variants (fluorescence titration, UV-visible absorbance)
Experimental: as §1
All SFP variants were expressed using E. coli BL21*(DE3) cells. […] Thus, refolded purified SFP was checked using an analytical gel filtration column for oligomerization state and biliverdin (BV) binding by UV-visible absorbance and fluorescence spectroscopy (FIGS. 1A-1D).
Characterization of monoSFP Variants—MonoSFP variants were characterized by size-exclusion chromatography during purification of the proteins. […] They have far-red to near infra-red fluorescence with large Stokes shift. […] To test this, we performed detergent (Triton X-100) assays with the monoSFPs and measured absorbance and fluorescence spectra. […]

Molecule	Quantum yield [3]	Ex/Em1, emission ([3]; UV/blue excitation) [nm]	Ex/Em1, excitation ([3]; UV/blue excitation) [nm]	Ex/Em1, emission ([3]; red excitation) [nm]	Ex/Em1, excitation ([3]; red excitation) [nm]	also measured
C=CC1=C(C)/C(=C/C2=NC(=C\c3[nH]c(/C=C4\NC(=O)C(C)=C4C=C)c(C)c3CCC(=O)O)/C(CCC(=O)O)=C2C)NC1=O [Biliverdin, Biliverdin IXα, reference compound]						bleaching of free form relative to complex with Sandercyanin [1]: bleaches faster; far red fluorescence of free biliverdin [2]: enhanced far red fluorescence
C=CC1=C(C)c2cc3[n-]c(cc4[n-]c(cc5nc(cc1n2)C(C)=C5C=C)c(C)c4CCC(=O)O)c(CCC(=O)O)c3C.[Cl-].[Fe+3] [hemin]						binding and fluorescence with Sandercyanin (apoSFP): does not show binding and fluorescence
B1	0.003	670	380	660	600	
B2	0.025	682	380	676	600	
B3	0.003	663	380	653	580	
B4	0.016	675	375	675	630	Molar extinction coefficient at 375 nm ([4]; phosphate buffer of pH 7.4, 375 nm): 21,000 M^−1 cm^−1; Molar extinction coefficient at 630 nm ([4]; phosphate buffer of pH 7.4, 630 nm): 13,500 M^−1 cm^−1; photo-stability of fluorescence ([1]; overnight exposure with UV or red light): does not bleach significantly; bleaching of fluorescence ([1]; walleye mucous cells and solution, several hours of excitation and emission): do not bleach; excitation maxima [3]: 375 nm; fluorescence intensity with D2O ([3]; increasing concentrations of D2O, no changes in the absorbance): increased fluorescence intensity; emission maxima [5]: 678 nm
B5	0.003	657	380	653	570	brightness relative to L135E monoSFP [3]: did not show significantly increased brightness; binding to biliverdin [6]: retained binding to biliverdin
B6	0.002	663	380	653	570	brightness relative to L135E monoSFP [3]: did not show significantly increased brightness; binding to biliverdin [6]: retained binding to biliverdin
